Assay results: publication PMC4936022, “Epigenetic silencing of serine protease HTRA1 drives polyploidy”

B1: HTRA1 promoter 12-mer, methylated (dsDNA)
DNA 1: CTCAGCGAGAGA
DNA 2: TCTCTCGCTGAG
modifications: 5-methyl-dC at position 6 of the reverse strand (TCTCT-5mC-GCTGAG); forward-strand methylation not visible in the material (line truncated), probably 5mC at position 6
B2: HTRA1 promoter 12-mer, unmethylated (dsDNA)
DNA 1: CTCAGCGAGAGA
DNA 2: TCTCTCGCTGAG

Experiments:
[1] = target: T1, MBD2b (MBD2 lacking the N-terminal 149 residues) (UniProt Q9UBB5 150-411); assay: EMSA; 70 pmol each, equimolar; 5 mM Mg2+; 1:1 stoichiometry; EMSA: 50 mM Tris, 5 mM MgCl2, 10 mM DTT, pH 7.5, 5 min, RT, 10 ul, 12% gel, ethidium bromide; protease protection: 50 mM Tris, 5 mM MgCl2, pH 7.5, 10 min RT with DNA, then trypsin 20 min 37 C; details: protein: recombinant; tags: 6His; label: none (ethidium bromide stain); blunt
T1 sequence (Q9UBB5 150-411): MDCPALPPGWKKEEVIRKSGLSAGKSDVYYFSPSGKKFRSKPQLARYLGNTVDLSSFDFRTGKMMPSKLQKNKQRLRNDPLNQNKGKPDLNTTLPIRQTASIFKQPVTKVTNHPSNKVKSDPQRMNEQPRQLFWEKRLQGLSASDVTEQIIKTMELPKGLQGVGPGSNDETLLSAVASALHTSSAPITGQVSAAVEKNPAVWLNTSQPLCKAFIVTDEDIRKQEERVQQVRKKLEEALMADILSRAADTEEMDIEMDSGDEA

[2] = target: T1, MBD2b (MBD2 lacking the N-terminal 149 …); assay: EMSA; 70 pmol each, equimolar; 5 mM Mg2+; EMSA: 50 mM Tris, 5 mM MgCl2, 10 mM DTT, pH 7.5, 5 min, RT, 10 ul, 12% gel, ethidium bromide; protease protection: 50 mM Tris, 5 mM MgCl2, pH 7.5, 10 min RT with DNA, then trypsin 20 min 37 C; details: protein: recombinant; tags: 6His; label: none (ethidium bromide stain); blunt

Row | Binder | binding result [1] | binding result [2]
1 | B1 | binds | 
2 | B2 |  | no binding
